Measured values as given in patent US20200247894A1 (Regeneron, published 2020).

T1: human IL2Rγ (endogenously expressed on cells) (human, UniProt P31785 23-369)
T1 sequence (looked up): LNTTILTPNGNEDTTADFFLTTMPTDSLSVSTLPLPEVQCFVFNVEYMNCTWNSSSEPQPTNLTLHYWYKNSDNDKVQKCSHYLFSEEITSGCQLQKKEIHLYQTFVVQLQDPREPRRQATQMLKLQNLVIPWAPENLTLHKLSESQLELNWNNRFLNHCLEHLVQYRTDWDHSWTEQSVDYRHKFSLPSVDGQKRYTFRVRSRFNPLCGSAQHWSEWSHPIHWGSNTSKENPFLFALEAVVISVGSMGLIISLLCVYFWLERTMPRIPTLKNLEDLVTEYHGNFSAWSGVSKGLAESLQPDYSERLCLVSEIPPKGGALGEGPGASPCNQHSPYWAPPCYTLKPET

T2: D1 domain of human IL-2Rγ extracellular domain expressed with a C-terminal myc-myc-hexahistidine tag (human)
T2 construct: also called human IL2Rγ domain 1
T2 chain: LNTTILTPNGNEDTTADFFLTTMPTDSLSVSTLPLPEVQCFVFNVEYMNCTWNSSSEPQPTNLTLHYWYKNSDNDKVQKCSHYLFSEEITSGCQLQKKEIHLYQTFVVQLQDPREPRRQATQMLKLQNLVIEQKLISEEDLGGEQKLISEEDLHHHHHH

T3: D2 domain of human IL2Rγ extracellular domain expressed with a C-terminal myc-myc-hexahistidine tag (human)
T3 construct: also called human IL2Rγ domain 2
T3 chain: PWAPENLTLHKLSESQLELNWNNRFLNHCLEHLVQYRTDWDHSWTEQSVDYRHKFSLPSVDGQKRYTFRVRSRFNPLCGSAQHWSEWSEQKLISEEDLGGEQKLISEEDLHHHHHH

B1: H4H12889P (antibody, human IgG4 S228P, kappa, V domains shown)
VH: EVQLVESGGGLVQPGGSLRLSCAASGFIFSSYEMHWVRQAPGKGLEWISYISSSGTTIYYADSVKGRFTISRDNAKNSLYLHMNSLRAEDTAVYYCTRARITGTFDVFDIWGQGTMVTVSS
VL: DIQMTQSPSSLSASVGDRVTITCRASQSISSYLNWYQQKPGKAPKLLIFAASNLQSGVPSRFSGSRSGTDFTLTISSLQPEDFATYYCQQNYNIPYTFGQGTKLEIKR
notes: human IgG4; also called REGN7257
B2: H4H12922P2 (antibody, human IgG4 S228P, kappa, V domains shown)
VH: QVQLVESGGGVVKPGGSLRLSCAASGFTFSNSGIHWVRQAPGKGLEWVALISYAGSNKYYADSVKGRFTISRDNSKNTLSLQMNSLRAEDTAVYYCAKEVWTGTYDSFDMWGRGTMVTVSS
VL: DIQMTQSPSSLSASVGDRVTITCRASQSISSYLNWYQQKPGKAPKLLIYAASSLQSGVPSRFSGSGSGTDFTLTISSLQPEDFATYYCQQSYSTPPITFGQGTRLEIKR
notes: human IgG4; also called REGN7256

Assays:
[1] = molecular target: T1, human IL2Rγ (endogenously expressed on …); assay: cell-based or functional assay
[2] = molecular target: T2, D1 domain of human IL-2Rγ extracellular …; assay: SPR, mAb captured on anti-hFc, 37 C
Procedure, shortened: (§1)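 Surface plasmon resonance with anti-hFc-captured antibodies in pH 7.4 HEPES-buffered saline containing EDTA and Tween-20; kinetic constants from a 1:1 model.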

[3] = molecular target: T1, human IL2Rγ (endogenously expressed on …); assay: cell-based or functional assay; remark: listed apart in the source
[4] = molecular target: T3, D2 domain of human IL2Rγ extracellular …; assay: SPR, mAb captured on anti-hFc, 37 C
Procedure, shortened: (§2)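 Anti-IL2Rγ antibodies held on an anti-human Fc capture surface with receptor binding to them.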

[5] = molecular target: T1, human IL2Rγ (endogenously expressed on …); assay: cell-based or functional assay; remark: listed apart in the source
[6] = molecular target: T2, D1 domain of human IL-2Rγ extracellular …; assay: SPR, mAb captured on anti-hFc, 25 C
Procedure, shortened: as §1

[7] = molecular target: T3, D2 domain of human IL2Rγ extracellular …; assay: SPR, mAb captured on anti-hFc, 25 C
Procedure, shortened: as §2

| Binder | IC50; IL-2 30 pM; NK92/hIL7R/STAT3-luc [1] [M] | IC50; IL-4 250 pM; Ramos.2G6.4C10/STAT3-luc [1] [M] | IC50; IL-7 50 pM; NK92/hIL7R/STAT3-luc [1] [M] | IC50; IL-9 20 pM; NK92/hIL7R/STAT3-luc [1] [M] | IC50; IL-15 60 pM; NK92/hIL7R/STAT3-luc [1] [M] | IC50; IL-21 5 pM; NK92/hIL7R/STAT3-luc [1] [M] | Max Inhibition (%); IL-2 30 pM; NK92/hIL7R/STAT3-luc [1] [%] | Max Inhibition (%); IL-4 250 pM; Ramos.2G6.4C10/STAT3-luc [1] [%] | Max Inhibition (%); IL-7 50 pM; NK92/hIL7R/STAT3-luc [1] [%] | Max Inhibition (%); IL-9 20 pM; NK92/hIL7R/STAT3-luc [1] [%] | Max Inhibition (%); IL-15 60 pM; NK92/hIL7R/STAT3-luc [1] [%] | Max Inhibition (%); IL-21 5 pM; NK92/hIL7R/STAT3-luc [1] [%] | 100 nM Ag Bound [2] [RU] | Kd [2] [nM] | koff [2] [s⁻¹] | kon [2] [M⁻¹ s⁻¹] | t½ [2] [min] | IC50; IL-2 (10 nM)-induced STAT phosphorylation, human CD4+ T cells [3] [nM] | IC50; IL-4 (50 pM)-induced STAT phosphorylation, human CD4+ T cells [3] [M] | IC50; IL-7 (1 pM)-induced STAT phosphorylation, human CD4+ T cells [3] [M] | also measured |
| --- | --- | --- | --- | --- | --- | --- | --- | --- | --- | --- | --- | --- | --- | --- | --- | --- | --- | --- | --- | --- | --- |
| B1 | 2.7e-08 | 1.9e-09 | 3e-09 | 7.1e-09 | 8.5e-09 | > 1e-07 | 81 | 101 | 100 | 100 | 92 | 35 | 16 | 20 | 0.00507 | 254000 | 2.3 | 2.06 | 1.1e-09 | 8.92e-10 | IC50; IL-15 (0.5 nM)-induced STAT phosphorylation, human CD4+ T cells [3]: 2.55 nM; IC50; IL-21 (50 pM)-induced STAT phosphorylation, human CD4+ T cells [3]: 2.28e-09 M; 100 nM Ag Bound [4]: 0 RU; IC50; IL-9 (2 nM)-induced STAT3 phosphorylation, in vitro differentiated human mast cells [5]: 0.441 nM; 100 nM Ag Bound [6]: 38 RU; Kd [6]: 5.34 nM; koff [6]: 0.00107 s⁻¹; kon [6]: 200000 M⁻¹ s⁻¹; t½ [6]: 11 min; 100 nM Ag Bound [7]: 0 RU; binding result [7]: no binding (tested: 100 nM) |
| B2 | 1.6e-08 | 1.3e-09 | 2.6e-09 | 3.1e-09 | 9.3e-09 | > 1e-07 | 85 | 100 | 98 | 99 | 91 | 49 | 26 | 4.13 | 0.00168 | 407000 | 7 | 1.87 | 8.54e-10 | 5.8e-10 | IC50; IL-15 (0.5 nM)-induced STAT phosphorylation, human CD4+ T cells [3]: 2.46 nM; IC50; IL-21 (50 pM)-induced STAT phosphorylation, human CD4+ T cells [3]: 2.21e-09 M; 100 nM Ag Bound [4]: 3 RU; IC50; IL-9 (2 nM)-induced STAT3 phosphorylation, in vitro differentiated human mast cells [5]: 0.416 nM; 100 nM Ag Bound [6]: 50 RU; Kd [6]: 3.32 nM; koff [6]: 0.000839 s⁻¹; kon [6]: 252000 M⁻¹ s⁻¹; t½ [6]: 14 min; 100 nM Ag Bound [7]: 2 RU; binding result [7]: no binding (tested: 100 nM) |
